In article PMC3999930, “Characterization of a SAM-dependent fluorinase from a latent biosynthetic pathway for fluoroacetate and 4-fluorothreonine formation in Nocardia brasiliensis” (F1000Research, 2014):

Target: the molecule itself
Test: SEC; Superdex 200 GL, 50 mM phosphate buffer pH 7.8, 1 ml/min; native mass estimated from a calibration curve of standard proteins (29-669 kDa)

B1: NobA, SAM-dependent fluorinase (5'-fluoro-5'-deoxyadenosine synthase) from Nocardia brasiliensis ATCC 700358 (enzyme, UniProt W8JNL4 1-300, looked up)
chain: MTTTNGRRPIIAFMSDLGITDDSVAQCKGLMLSVCPDVTIVDICHTMQPWDVEEGARYIVDLPRLFPEGTVFATTTYPATGTTARSVALRIAHASKGGARGQWAGSGAGFERKEGSYIYIAPNNGLLTTVIKEHGYLEAYEVSSPEVIPEQPEPTFYSREMVALPSAHLAAGFPLEKVGRRLADDEIVRFERKDPELVADHDLVGYVTNIDHPFGNVWTNIHRTDLEKLGVGYGTKLRITLDGVLPFELPLSPTFADAGEIGAAVAYLSSRGYLALARNAASLAYPYNLKAGISVQVKVG
notes: NobA, fluorinase of Nocardia brasiliensis ATCC 700358 (HUJEG-1); NdeI-HindIII fragment in pET28a; no removal of the His tag is described; also called 5'-FDA synthase; source: E. coli BL21 (DE3), purified (Ni-NTA, dialysis)
  stoichiometry N: 6
